These results are taken from patent US20240076386A1 (Pfizer, published 2024).

Residue numbers refer to the chain shown, from its start.

To fix the notation:
T1: cynomolgus monkey E-selectin extracellular domain with 10 His purification tail (cynomolgus monkey, UniProt P16581 22-554 (human entry))
T1 construct: also called cynomolgus E-selectin; truncated cynomolgus monkey E-selectin
T1 chain: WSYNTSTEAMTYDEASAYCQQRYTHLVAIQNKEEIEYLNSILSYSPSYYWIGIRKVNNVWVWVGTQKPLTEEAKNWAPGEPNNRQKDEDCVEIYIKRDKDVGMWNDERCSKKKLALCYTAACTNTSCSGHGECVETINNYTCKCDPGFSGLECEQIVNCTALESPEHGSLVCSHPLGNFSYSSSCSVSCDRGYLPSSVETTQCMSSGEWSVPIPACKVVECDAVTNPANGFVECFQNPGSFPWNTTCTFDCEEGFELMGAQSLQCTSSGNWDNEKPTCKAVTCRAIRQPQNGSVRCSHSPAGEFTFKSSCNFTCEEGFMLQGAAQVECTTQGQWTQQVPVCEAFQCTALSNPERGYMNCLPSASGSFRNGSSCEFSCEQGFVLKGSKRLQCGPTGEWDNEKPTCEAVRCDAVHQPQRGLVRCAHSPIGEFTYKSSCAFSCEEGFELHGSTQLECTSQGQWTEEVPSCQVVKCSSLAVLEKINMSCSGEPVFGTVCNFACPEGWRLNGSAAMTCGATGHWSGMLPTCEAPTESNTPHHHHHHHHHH

T2: free soluble human E-selectin in human serum (human, UniProt P16581 22-556, limits assumed)
T2 construct: also called endogenous human E-selectin
T2 sequence (looked up): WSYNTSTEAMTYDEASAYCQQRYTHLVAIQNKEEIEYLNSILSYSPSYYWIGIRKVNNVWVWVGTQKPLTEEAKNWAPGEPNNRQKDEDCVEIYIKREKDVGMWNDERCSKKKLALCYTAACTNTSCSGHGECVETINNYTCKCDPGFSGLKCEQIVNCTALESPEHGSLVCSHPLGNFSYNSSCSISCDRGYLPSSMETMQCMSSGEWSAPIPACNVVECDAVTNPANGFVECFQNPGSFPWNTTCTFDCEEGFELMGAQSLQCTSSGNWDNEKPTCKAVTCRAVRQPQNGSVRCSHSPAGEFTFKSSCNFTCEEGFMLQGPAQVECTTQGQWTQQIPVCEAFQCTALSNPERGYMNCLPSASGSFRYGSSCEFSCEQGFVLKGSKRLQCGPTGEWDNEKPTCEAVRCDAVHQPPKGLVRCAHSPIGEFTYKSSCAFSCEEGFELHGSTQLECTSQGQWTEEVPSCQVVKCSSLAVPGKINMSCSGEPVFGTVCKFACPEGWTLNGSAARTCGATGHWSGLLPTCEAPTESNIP

B1: anti-E-selectin antibody 0180 chimera (antibody, human IgG1, kappa, V domains shown)
VH: EVQLQQSGAELGKPGTSVKLSCKVSGYKIRSSYMHWVNQRPGKGLEWIGRIDPANGNTIYGDKFKSKATLTSDTSSNTAYIQLSQLKSDDTAIYFCAIDIGTTFDYWGQGVMVTVSS
VL: DIQMTQSPSFLSASVGDRVTINCKASQHINRYLNWYQQKLGEAPKLLIYDANNLQTGIPSRFSGSGSGTDFTLTISSLQPEDVATYFCLQHNSWPNTFGAGTKLELKR
notes: rat VH/VL on effector-null human IgG1 and human kappa
B2: anti-E-selectin antibody 0164 chimera (antibody, human IgG1, kappa, V domains shown)
VH: EVQLQQSGAEFGKPGTSVKLSCKVSGYNIRSSYMHWVNQRPGKGLEWIGRIDPANGNTIYAEKFKIKAILTADSSSNTAYMQLSQLKSDDTAIYFCAMDLYSTSEYWGQGVMVTVSS
VL: B1 VL with A25T, H28N, D50N, N53S, G64A, S76N, H91D, N96L, A100S, L106I
notes: as for B1
B3: anti-E-selectin antibody 0039 chimera (antibody, human IgG1, kappa, V domains shown)
VH: QVQLKETGPGLVQPTQTLSITCTVSGFSLTGYYMQWVRQTPGKGLEWMGFIRSSGSTEYNSEFKSRLSISRDTSKNQVFLKMNSLKTEDTGVYYCARCPYKYSSFVYVGVMDAWGQGAPVTVSS
VL: EIVMTQSPTSMSTSIGERVTLNCKASQTVGINVDWYQQTPGQPPKLLIYGASNRHTGVPDRFTGSGFGRDFTLTISNVEAEDLAVYCCLQYGSIPHTFGPGTKLELKR
notes: as for B1
B4: anti-E-selectin antibody 0159 chimera (antibody, human IgG1, kappa, V domains shown)
VH: EVQLQQSGAELGKPGTSVKLSCKVSGYNIRSTYMHWVSQRPGKGLEWIGRIDPANGNTIYAEKFKRKATLTADTSSNTAYMQLSQLKSDDRAIYFCAMEVRVSFEYWGQGVMVTVSS
VL: DIQMTQSPSFLSASVGDRVTINCKASQNINKYLDWYQQKLGEGPKLLIYYTNNLHTGIPSRFSGSGSGTDFTLTISSLQPEDVATYFCLQHDSGYTFGAGTKLELKR
notes: as for B1
B5: anti-E-selectin antibody 0170 chimera (antibody, human IgG1, kappa, V domains shown)
VH: EVQLQQSGAELGKPGTSVKLSCKVSGYSIRSTYMHWVNQRPGKGLEWVGRIDPANGNTIYAERFKNKATLTADTSSNTAYMQLSQLKSDDTAIYFCAVEILGIFDYWGQGVMVTVSS
VL: B4 VL with N30D, G43A, I48M, Y50N, N53S, D92N
notes: as for B1
B6: optimized anti-E-selectin antibody 1282 (antibody, human IgG1, kappa, V domains shown)
VH: EVQLVESGGGLVQPGGSLRLSCAASGYAIRSAYMHWVRQAPGKGLEWVARIDPANGNTIYVDSVEGRFTISADNAKNSAYLQMNSLRAEDTAVYYCAMDLYSTSEYWGQGTLVTVSS
VL: DIQMTQSPSSLSASVGDRVTITCKTSQNIERYLNWYQQKPGKAPKLLIYAASSLQSGVPSRFSGSGSGTDFTLTISSLQPEDFATYFCLQDNAWPLTFGQGTKVEIKR
notes: effector-null human IgG1, kappa
B7: optimized anti-E-selectin antibody 1448 (antibody, human IgG1, kappa, V domains shown)
VH: B6 VH with E65K, G66E
VL: B6 VL
notes: as for B6
B8: optimized anti-E-selectin antibody 1284 (antibody, human IgG1, kappa, V domains shown)
VH: B6 VH with D62E
VL: B6 VL
notes: as for B6
B9: optimized anti-E-selectin antibody 1444 (antibody, human IgG1, kappa, V domains shown)
VH: B6 VH with E65T
VL: B6 VL
notes: as for B6

In one assay the target is T1, cynomolgus monkey E-selectin …. As to the kind of experiment: AlphaLISA competition vs sialyl Lewis A-PAA-biotin. (Alpha assays give light when donor and acceptor beads are brought close together.)
By EC50 is commonly meant the midpoint of the concentration-response curve. Turning to B1, the EC50 was < 1 nM.

In the case of B2, the EC50 was < 1 nM.

As to B3, the EC50 was > 63 nM.

For B4, the EC50 is < 1 nM.

For the molecule B5, the EC50 was < 1 nM.

The target of a further assay is T2, free soluble human E-selectin in human …. As to the kind of experiment: IP-LC/MS/MS of free soluble E-selectin in human serum, capture by biotinylated 0164. On the procedure: This method quantified free soluble human E-selectin in human serum or free soluble monkey E-selectin in cynomolgus monkey serum. The method used 50 μL of serum in 250 μL of PBS which was incubated overnight at 4° C. […] After incubation, 30 μL of Invitrogen T1 streptavidin magnetic beads were added to each sample followed by incubation for 40 minutes at room temperature (shaking at 1000 rpm). Using a Hamilton Microlabstar, the magnetic beads were then washed two times with PBS/0.05% Tween-20 followed by one wash with PBS. Soluble E-selectin was then eluted from the beads with 145 μL of 30 mM hydrochloric acid (HCl) and neutralized with 32 μL of 1 M Tris HCl, pH 8. Subsequently 50 fmol of stable isotope labeled (SIL) internal standard was added, followed by the addition of dithiothreitol (DTT, 10 μL×50 mM). After incubating 35 minutes at 60° C. the samples were allowed to cool to room temperature prior to the addition of iodoacetamide (IAA, 10 μL×100 mM). Samples were then placed in the dark for 30 minutes to which 1 μg of Promega LysC/trypsin (10 μL×100 […]) was added and then digested overnight at 37° C.
After overnight incubation, 50 μL of prepared sample was injected onto the nano ESILC-MS/MS.
As usually defined, the IC50 is the concentration that inhibits the measured activity by half. What is called IC90 is the point of the concentration-response curve where the effect stands at 90%. Molecule B6 registered a half-inhibitory concentration (IC50) of 2.4 nM and a 90% effect concentration (IC90) of 4.9 nM.

Consider B7, for which the IC50 was found to be 1.8 nM and the 90% effect level (IC90) was put at 8.6 nM.

The molecule B8 displayed an IC50 of 1.1 nM and an IC90 of 4.8 nM.

In the case of B9, it took 1.2 nM to reach half-maximal inhibition (IC50) and it took 6.5 nM to reach the 90% level (IC90).
